Measured values as given in patent US20260092115A1 (Chugai, published 2026).
Changes are numbered by the printed parent chain. Names may count otherwise. Each block holds one binder with its values, some of them ahead of it.

What was measured:
[1] = target: T1, human FcγRIIb extracellular domain, His-tagged (human, UniProt P31994 43-217); assay: SPR Biacore T200, 25C, pH 7.4; FcγRIIb at 1000 nM, corrected by captured antibody
T1 construct: extracellular domain; also called hFcγR IIb
T1 sequence (looked up): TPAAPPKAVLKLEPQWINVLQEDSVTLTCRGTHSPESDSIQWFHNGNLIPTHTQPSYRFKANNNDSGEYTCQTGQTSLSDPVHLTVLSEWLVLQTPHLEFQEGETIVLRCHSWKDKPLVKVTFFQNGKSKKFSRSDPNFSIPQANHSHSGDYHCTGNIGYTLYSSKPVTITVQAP
Protocol: (§1) The interaction between the generated antibodies and human FcγRs was analyzed by the following method using Biacore T200. 50 mM Na-Phosphate, 150 mM NaCl, 0.05% Tween20 (pH 7.4) was used as the running buffer, and the assay was performed at 25° C. For the sensor chips, Series S SA (GE Healthcare) chips onto which CaptureSelect Human Fab-lambda Kinetics Biotin Conjugate (Thermo Fisher Scientific) was immobilized were used. The antibodies of interest were captured onto these chips and each FcγR diluted in the running buffer was allowed to interact with them. Chips were regenerated with 10 mM Glycine-HCl (pH 1.5) and 25 mM NaOH, and assay was performed by repeatedly capturing antibodies. The dissociation constants KD (mol/L) for FcγRs of each antibody were calculated using Biacore T200 Evaluation Software 2.0, using the 1:1 Langmuir binding model for FcγRIa and FcγRIIIa and the steady state affinity model for FcγRIIa. For FcγRIIb, the binding amount of FcγRIIb per unit amount of antibody was calculated by correcting the binding amount of FcγRIIb obtained from the sensorgram obtained by the measurement with the amount of antibody captured onto the chip surface.

[2] = target: T2, human FcγRIIa, type H, extracellular domain, His-tagged (human, UniProt P12318 34-217); assay: KD of 04H1637-G1m/04L1610-lam1 divided by KD of this antibody; SPR pH 7.4
T2 construct: extracellular domain; also called hFcγR IIa H
T2 sequence (looked up): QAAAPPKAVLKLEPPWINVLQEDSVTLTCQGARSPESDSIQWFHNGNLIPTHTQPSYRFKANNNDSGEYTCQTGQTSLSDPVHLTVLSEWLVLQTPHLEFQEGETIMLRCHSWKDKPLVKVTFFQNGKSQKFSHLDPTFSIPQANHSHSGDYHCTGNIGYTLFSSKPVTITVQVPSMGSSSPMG
Protocol: as §1
(§2) “Relative value to KD between G1m and hFcRn” and “Relative value to KD between G1m and hFcγRs” are values obtained by dividing the KD value of 04H1637-G1m/04L1610-lam1 for hFcRn and for each FcγR by the KD value of each variant, respectively. “Relative binding amount” indicates the value obtained by dividing the binding amount of each variant to FcγRIIb by the binding amount of 04H1637-G1m/04L1610-lam1. […] It was shown that all of the generated heterodimerized antibodies had enhanced binding to FcγRIIa and FcγRIIIa as compared with 04H1637-G1m/04L1610-lam1 which has the constant region of native human IgG1.

[3] = target: T3, human FcγRIIIa, allotype F158, extracellular domain, His-tagged (human, UniProt P08637 17-208); assay: as above
T3 construct: extracellular domain; also called hFcγR IIIa F
Protocol: as §1, §2

[4] = target: T4, human FcγRIIa, type R, extracellular domain, His-tagged (human, UniProt P12318 34-217); assay: as above
T4 construct: extracellular domain; also called hFcγR IIa R
T4 sequence (looked up): T2 sequence (looked up) with H134R
Protocol: as §1, §2

[5] = target: T5, human FcγRIIIa, allotype V158, extracellular domain, His-tagged (human, UniProt P08637 17-208); assay: as above
T5 construct: extracellular domain; also called hFcγR IIIa V
Protocol: as §1, §2

[6] = target: T6, human FcγRIa extracellular domain, His-tagged (human, UniProt P12314 16-292); assay: as above
T6 construct: also called hFcγR Ia
Protocol: as §1, §2

[7] = target: T1, human FcγRIIb extracellular domain, …; assay: binding amount of this antibody divided by that of 04H1637-G1m/04L1610-lam1; SPR pH 7.4
Protocol: as §1, §2

human FcRn = target: T7, human FcRn (human, UniProt P55899 24-290; P61769 21-119); assay: KD of 04H1637-G1m/04L1610-lam1 divided by KD of this antibody; SPR pH 6.0
T7 construct: Prepared by the method of WO 2010/107110; also called hFcRn
Protocol: The interaction between the generated antibodies and human FcRn was analyzed by the following method using Biacore T200. 50 mM Na-Phosphate, 150 mM NaCl, 0.05% Tween20 (pH 6.0) was used as the running buffer, and the assay was performed at 25° C. For the sensor chip, Series S SA (GE Healthcare) chips onto which CaptureSelect Human Fab-lambda Kinetics Biotin Conjugate (Thermo Fisher Scientific) was immobilized were used. The antibodies of interest were captured onto these chips and FcRn diluted in the running buffer was allowed to interact with them. Chips were regenerated with 10 mM Glycine-HCl (pH 1.5) and 25 mM NaOH, and assay was performed by repeatedly capturing antibodies. The dissociation constant for FcRn of each antibody was calculated using the steady state model, using Biacore T200 Evaluation Software 2.0.
“Relative value to KD between G1m and hFcRn” and “Relative value to KD between G1m and hFcγRs” are values obtained by dividing the KD value of 04H1637-G1m/04L1610-lam1 for hFcRn and for each FcγR by the KD value of each variant, respectively. “Relative binding amount” indicates the value obtained by dividing the binding amount of each variant to FcγRIIb by the binding amount of 04H1637-G1m/04L1610-lam1. […] It was shown that all of the generated heterodimerized antibodies had enhanced binding to FcγRIIa and FcγRIIIa as compared with 04H1637-G1m/04L1610-lam1 which has the constant region of native human IgG1. Furthermore, 04H1637-Kn462/04L1610-lam1//04H1637-H1441/04L1610-lam1, 04H1637-Kn462/04L1610-lam1//04H1637-H1445/04L1610-lam1, and 04H1637-Kn461/04L1610-lam1//04H1637-H1443/04L1610-lam1 were all shown to have enhanced binding to FcγRIIa compared to 04H1637-Kn125/04L1610-lam1//04H1637-H1076/04L1610-lam 1 which has the Fc region variant reported in WO 2013/002362.

T6 sequence (P12314 16-292): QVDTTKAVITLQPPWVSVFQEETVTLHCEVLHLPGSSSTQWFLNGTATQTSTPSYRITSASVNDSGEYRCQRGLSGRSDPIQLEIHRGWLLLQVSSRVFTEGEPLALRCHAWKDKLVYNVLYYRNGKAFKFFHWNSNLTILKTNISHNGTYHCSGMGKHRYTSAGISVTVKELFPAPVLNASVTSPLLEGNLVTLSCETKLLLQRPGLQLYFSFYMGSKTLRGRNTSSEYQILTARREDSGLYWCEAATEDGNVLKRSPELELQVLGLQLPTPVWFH
T3 sequence (P08637 17-208): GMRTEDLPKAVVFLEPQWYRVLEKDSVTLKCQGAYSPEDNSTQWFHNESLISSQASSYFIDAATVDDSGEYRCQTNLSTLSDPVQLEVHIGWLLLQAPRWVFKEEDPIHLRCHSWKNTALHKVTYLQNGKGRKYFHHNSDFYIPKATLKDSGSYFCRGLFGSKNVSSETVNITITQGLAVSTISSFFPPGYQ
T5 sequence (P08637 17-208 F176V): as the sequence (P08637 17-208) above, with F160V counted along it

B1: 04H1637-G1m/04L1610-lam1 (antibody, human IgG1, lambda)
heavy: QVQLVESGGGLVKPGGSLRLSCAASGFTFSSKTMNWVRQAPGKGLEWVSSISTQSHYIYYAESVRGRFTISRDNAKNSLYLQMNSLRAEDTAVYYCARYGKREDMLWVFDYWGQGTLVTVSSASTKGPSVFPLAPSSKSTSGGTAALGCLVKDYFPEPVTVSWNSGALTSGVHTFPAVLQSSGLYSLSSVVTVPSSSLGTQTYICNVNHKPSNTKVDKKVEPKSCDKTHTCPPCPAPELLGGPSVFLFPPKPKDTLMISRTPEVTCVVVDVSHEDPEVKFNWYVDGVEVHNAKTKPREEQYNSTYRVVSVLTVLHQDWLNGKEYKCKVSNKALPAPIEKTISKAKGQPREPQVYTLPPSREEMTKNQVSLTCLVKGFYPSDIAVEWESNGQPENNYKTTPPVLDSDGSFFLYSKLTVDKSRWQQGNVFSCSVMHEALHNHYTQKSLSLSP
light: QSALTQPPSASGSPGQSVTISCEGPSTGVGDYNWVHWYQQHPGKAPKLMIYFTSKKPSGVPDRFSGSKSGNTASLTVSGLQAEDEADYYCQTYAAPLGPMFGGGTKLTVLGQPKAAPSVTLFPPSSEELQANKATLVCLISDFYPGAVTVAWKADSSPVKAGVETTTPSKQSNNKYAASSYLSLTPEQWKSHRSYSCQVTHEGSTVEKTVAPTECS
Binding amount [1]: 0.008 RU per RU of captured antibody
Relative value to KD between G1m and hFcγRs [2]: 1 ratio
Relative value to KD between G1m and hFcγRs [3]: 1 ratio
Relative value to KD between G1m and hFcγRs [4]: 1 ratio
Relative value to KD between G1m and hFcγRs [5]: 1 ratio
Relative value to KD between G1m and hFcγRs [6]: 1 ratio
Relative binding amount [7]: 1 ratio
Relative value to KD between G1m and hFcRn (human FcRn): 1 ratio

B2: 04H1654-KT462/04L1610-lam1//04H1656-HT445/04L1610-lam1 (antibody, human IgG1, lambda)
heavy 1: QVQLVESGGGVVQPGGSLRLSCAASGFTFSSKTMNWVRQAPGKGLEWVSSISTQSHYIYYARSVRGRFTISRDNAKNSLYLQMNSLRAEDTAVYYCARYGKREDMLWVFDYWGQGTLVTVSSASTKGPSVFPLAPSSKSTSGGTAALGCLVKDYFPEPVTVSWNSGALTSGVHTFPAVLQSSGLYSLSSVVTVPSSSLGTQTYICNVNHKPSNTKVDKRVEPKSCDKTHTCPPCPAPEFQWGPMVFLFPPKPKDVLMISRTPEVTCVVVDVSDEEPEVKFNWYVDGVEVHNAKTKPREEQYNATYRVVSVLPVLHQDWLNGKEYKCKVSNDALPAPIEKTISKAKGQPREPQVYTLPPSRKEMTKNQVSLTCLVKGFYPSDIAVEWESNGQPENNYKTTPPVLDSDGSFFLYSKLTVDKSRWQQGNVFSCSVMHEALHNHYTQKSLSLSP
heavy 2: QVQLVESGGGVVQPGGSLRLSCAASGFTFSSKTMNWVRQAPGKGLEWVSSISTQSHYIYYAESVRGRFTISRDNAKNSLYLQMNSLRAEDTAVYYCARYGAREDMLWVFDYWGQGTLVTVSSASTKGPSVFPLAPSSKSTSGGTAALGCLVKDYFPEPVTVSWNSGALTSGVHTFPAVLQSSGLYSLSSVVTVPSSSLGTQTYICNVNHKPSNTKVDKRVEPKSCDKTHTCPPCPAPELLAGPSVFLFPPKPKDVLMISRTPEVTCVVVDVSHEEPEVKFNWYVDGVEVHNAKTKPREEQYNATYRVVSVLPVLHQDWLNGKEYKCKVSNDALPKPDEETISKAKGQPREPQVYTLPPSREEMTKNQVSLTCLVKGFYPSDIAVEWESNGQPENNYKTTPPVLDSDGSFFLYSKLTVDKSRWQQGNVFSCSVMHEALHNHYTQESLSLSP
light: B1 light
notes: Heterodimerized IgG1 (IGHG1*03) Fc variant
Binding amount [1]: 0.025 RU per RU of captured antibody
Relative value to KD between G1m and hFcγRs [2]: 13.9 ratio
Relative value to KD between G1m and hFcγRs [3]: 415 ratio
Relative value to KD between G1m and hFcγRs [4]: 13 ratio
Relative value to KD between G1m and hFcγRs [5]: 110 ratio
Relative value to KD between G1m and hFcγRs [6]: 1.6 ratio
Relative binding amount [7]: 3.1 ratio
Relative value to KD between G1m and hFcRn (human FcRn): 0.9 ratio

B5: 04H1654-KT461/04L1610-lam1//04H1656-HT443/04L1610-lam1 (antibody, human IgG1, lambda)
heavy 1: B2 heavy 1 with I337E
heavy 2: B2 heavy 2 with K335A, D337E
light: B1 light
notes: as for B2
Binding amount [1]: 0.025 RU per RU of captured antibody
Relative value to KD between G1m and hFcγRs [2]: 7.3 ratio
Relative value to KD between G1m and hFcγRs [3]: 526 ratio
Relative value to KD between G1m and hFcγRs [4]: 8.4 ratio
Relative value to KD between G1m and hFcγRs [5]: 156 ratio
Relative value to KD between G1m and hFcγRs [6]: 1.5 ratio
Relative binding amount [7]: 3.1 ratio
Relative value to KD between G1m and hFcRn (human FcRn): 0.9 ratio

Other lines, results leading:

Binding amount [1]: 0.026 RU per RU of captured antibody
Relative value to KD between G1m and hFcγRs [2]: 18 ratio
Relative value to KD between G1m and hFcγRs [3]: 363 ratio
Relative value to KD between G1m and hFcγRs [4]: 13.9 ratio
Relative value to KD between G1m and hFcγRs [5]: 115 ratio
Relative value to KD between G1m and hFcγRs [6]: 1.1 ratio
Relative binding amount [7]: 3.2 ratio
Relative value to KD between G1m and hFcRn (human FcRn): 2.3 ratio
B3: 04H1654-KT473/04L1610-lam1//04H1656-HT482/04L1610-lam1 (antibody, IgG1)
heavy 1: B2 heavy 1 with N439A, Y441T, Q443R, S445E
heavy 2: B2 heavy 2 with N439A, Y441T, Q443R, S445E
light: B1 light
notes: Heterodimerized IgG1 Fc variant with N434A/Y436T/Q438R/S440E; also called SW1610-ART6+ACT1

Binding amount [1]: 0.025 RU per RU of captured antibody
Relative value to KD between G1m and hFcγRs [2]: 7.1 ratio
Relative value to KD between G1m and hFcγRs [3]: 537 ratio
Relative value to KD between G1m and hFcγRs [4]: 8.2 ratio
Relative value to KD between G1m and hFcγRs [5]: 159 ratio
Relative value to KD between G1m and hFcγRs [6]: 1.3 ratio
Relative binding amount [7]: 3.1 ratio
Relative value to KD between G1m and hFcRn (human FcRn): 0.8 ratio
B4: 04H1654-KT461/04L1612-lam1//04H1656-HT443/04L1612-lam1 (antibody, human IgG1, lambda)
heavy 1: B2 heavy 1 with I337E
heavy 2: B2 heavy 2 with K335A, D337E
light: B1 light with N33T, W34Y
notes: as for B2

Binding amount [1]: 0.028 RU per RU of captured antibody
Relative value to KD between G1m and hFcγRs [2]: 16.1 ratio
Relative value to KD between G1m and hFcγRs [3]: 408 ratio
Relative value to KD between G1m and hFcγRs [4]: 14.2 ratio
Relative value to KD between G1m and hFcγRs [5]: 106 ratio
Relative value to KD between G1m and hFcγRs [6]: 1.2 ratio
Relative binding amount [7]: 3.4 ratio
Relative value to KD between G1m and hFcRn (human FcRn): 0.8 ratio
B6: 04H1654-KT462/04L1612-lam1//04H1656-HT445/04L1612-lam1 (antibody, human IgG1, lambda)
heavy 1: B2 heavy 1
heavy 2: B2 heavy 2
light: B1 light with N33T, W34Y
notes: as for B2

Binding amount [1]: 0.026 RU per RU of captured antibody
Relative value to KD between G1m and hFcγRs [2]: 16.2 ratio
Relative value to KD between G1m and hFcγRs [3]: 355 ratio
Relative value to KD between G1m and hFcγRs [4]: 13.8 ratio
Relative value to KD between G1m and hFcγRs [5]: 110 ratio
Relative value to KD between G1m and hFcγRs [6]: 1 ratio
Relative binding amount [7]: 3.2 ratio
Relative value to KD between G1m and hFcRn (human FcRn): 2.1 ratio
B7: 04H1654-KT473/04L1612-lam1//04H1656-HT482/04L1612-lam1 (antibody, IgG1)
heavy 1: B2 heavy 1 with N439A, Y441T, Q443R, S445E
heavy 2: B2 heavy 2 with N439A, Y441T, Q443R, S445E
light: B1 light with N33T, W34Y
notes: Heterodimerized IgG1 Fc variant with N434A/Y436T/Q438R/S440E
